# The supplement of paper PMC12042874
# ± gives the uncertainty stated by the source.
# Assay: amyloid nucleation score (Sup35N fusion, yeast selection) (log enrichment); library NNK2; higher = more nucleation; inactive = no reads after selection
# In short: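 Psi-negative yeast expressed Sup35N fused to peptides of 20 random codons. They were induced 24 hours with 100 μM copper sulfate, grown 7 days at 30°C without adenine and uracil, and their plasmid inserts from input and output were Illumina-sequenced. The nucleation score is the DiMSum log enrichment of output over input reads, centred on the mode score of non-aggregating sequences. Sequences with under 100 input reads were excluded.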
row,Substance,amyloid nucleation score
1,SCRRMLFGMWILGFLNR,inactive
2,SCRTQVMVLSLLFKRKVGFN,-1.28 ± 0.36
3,SCSANCRISLDSSRVVVPYY,0.571 ± 0.64
4,SCTPGLHQGCRCSVLLWEHR,0.681 ± 0.47
5,SCWMMFHPNPMQLKFSYCVE,-0.69 ± 0.33
6,SDCYDDKINVVQSKAVSITL,0.075 ± 0.76
7,SDGSREFSCKLGGAGLGDGW,0.334 ± 0.5
8,SDHTVELFTCKPVMQTRQRT,0.439 ± 0.27
9,SDICTLAEQSGASIRDRLTL,-0.284 ± 1.1
10,SDMDYLWLCIVRTVLNVIYR,-1.17 ± 1.1
11,SDMRCGYMLRCWLVQRVSHR,1.48 ± 0.54
12,SDNEEKTCGAFVVLS,-0.719 ± 0.49
13,SDNMFSWRCLKDTWLDRRWA,0.294 ± 0.22
14,SDNVLNDSSCLLYINFGAGQ,2.69 ± 0.15
15,SDPALVYRITYVIQ,-0.008 ± 0.49
16,SDSYAILLPC,0.087 ± 0.79
17,SDVRLVLAASEIRYGAGCRW,0.299 ± 0.65
18,SEANKSGVSVGWCDCAVGCV,0.734 ± 0.21
19,SECMIRFVNYADGTFNIGHS,-0.22 ± 0.37
20,SEERPKETRGGFWARVSSGG,0.228 ± 0.74
21,SEHLTCLWCLW,9.924 ± 0.064
22,SEMDPPYPEISHYRYQRNHW,0.11 ± 0.54
23,SENIRDFVLKWCYLDTHDRL,-0.261 ± 1.1
24,SEQWSQIYGAFSV,-1.32 ± 0.63
25,SEWDLRVLTWYMWLFVPLVQ,-0.477 ± 0.39

row,Substance,amyloid nucleation score
1,SEWEYPNINE,inactive
2,SEWSQKRGLVYTVQEFQKLY,inactive
3,SFAAMLVSSKVVGWVTGRAT,1.68 ± 0.21
4,SFDKGIDYRFFTFNSNVKYW,3.49 ± 0.12
5,SFEWKPVFLSRLRPRIRHQV,5.66 ± 0.066
6,SFGFVAMMIVRCANFRASPV,0.688 ± 0.81
7,SFGHHPDYRNVMVESYNRMV,0.259 ± 0.23
8,SFGNYRSVWYVTDVFAHIHL,8.335 ± 0.056
9,SFGWAYSVICLFIALTRTFL,-0.123 ± 0.26
10,SFHSCNVS,-0.363 ± 0.74
11,SFHWPSTGYKRVYFSPLLIV,inactive
12,SFHYLYWIIRLVGRVYLDEG,-0.195 ± 0.36
13,SFIVQHE,0.16 ± 0.55
14,SFIVRQGPTHKFVSECS,-0.887 ± 0.54
15,SFIWEYNMYYTGLGRITWMP,0.922 ± 0.34
16,SFLDYRSLTVMFVAGQSTVR,-0.645 ± 0.53
17,SFLRSNRGEVLPCNILNYVA,inactive
18,SFMDQHFS,-0.419 ± 0.63
19,SFRANDNSFGCQWRRFLISG,0.032 ± 0.42
20,SFSPFVYG,-0.868 ± 0.44
21,SFSVVGNHHVCMDYDMVLNG,0.315 ± 0.32
22,SFVRPGGWPNK,-0.264 ± 0.76
23,SFYLLCLSFMSLCWASRLVV,4.83 ± 0.073
24,SFYRHGFTGNGTSVRGPDRS,0.097 ± 0.79
25,SFYSVTSPRWH,1.92 ± 0.17

row,Substance,amyloid nucleation score
1,SGARPVYFWLLIPLSYKL,0.285 ± 1
2,SGEARQH,-0.691 ± 0.49
3,SGEVSAVRV,0.852 ± 0.19
4,SGFLIRKHAKLYKPDQPLLV,0.101 ± 0.54
5,SGFSLDLLVGGPCVPDLTVR,0.228 ± 1
6,SGGAVAYREAKWWSASNLRS,0.373 ± 0.24
7,SGHGLWLDAWCRLLDNRGYL,-0.403 ± 0.44
8,SGILLLRSLFGWPISERGHN,0.167 ± 0.56
9,SGLPMYCSYRYHSRLGNTYR,2.92 ± 0.064
10,SGLTSIWQPTRTRMMSPSRR,0.08 ± 0.79
11,SGNGLLMCPMGSRTGRLFHR,3.54 ± 0.061
12,SGNICIPFY,inactive
13,SGPATLLPTLGYNGVIVFGN,-0.444 ± 0.78
14,SGSIVRGLCVVFSCVFKGSL,-0.874 ± 0.56
15,SGTYR,inactive
16,SGVLSLGGVQSWNSLLRWDN,-0.476 ± 0.44
17,SGWTFGVQCLYTLVSMFLLC,1.5 ± 0.12
18,SGYCQDCSSGPFESDGINIS,-0.321 ± 1
19,SHAIHRCVGWFGVWTGTLFI,3.69 ± 0.083
20,SHDAYGIYRLQ,0.696 ± 0.38
21,SHYPKGCHWGGLHSGDRKFP,0.892 ± 0.45
22,SIFCGPDVVNTGPKLG,0.751 ± 0.6
23,SIFRLDDEGDPVMREPLM,1.22 ± 0.59
24,SIGNIVVLVEERSVRQPTLF,2.79 ± 0.14
25,SIHEMYFKAMDSVH,-0.276 ± 0.62

row,Substance,amyloid nucleation score
1,SILDATCCLGFYKVFAVGMK,-0.669 ± 0.44
2,SILTVKQRTYVNGGRLYSRY,0.005 ± 0.49
3,SINSSV,-0.166 ± 1.1
4,SINTAVSCFMAGICNGHRSE,8.246 ± 0.061
5,SIQRTVS,0.473 ± 0.2
6,SIRSRLEFSFFL,3.45 ± 0.047
7,SISIPCRYYKGLRSTSLYSR,-0.264 ± 0.26
8,SIVYTLTCVL,4.945 ± 0.038
9,SIWLFYHILVFVLMPFAVAF,inactive
10,SIYKIILNSILPPHYNFLTY,-1.21 ± 1
11,SKGNVV,0.709 ± 0.42
12,SKNDCRVFPSDMHFWHDLVE,0.351 ± 0.44
13,SKNLE,-2.09 ± 0.48
14,SKPCWLFRNK,-1.22 ± 1.1
15,SKPWKYNRFYLESSEWSSFC,1.47 ± 0.3
16,SKQTRYSSCGIISGLVDPFA,-0.329 ± 0.23
17,SKRFIVIATLNTYMFQKLEF,inactive
18,SKTMSKMNKDQLQHSMLHDP,-0.453 ± 0.45
19,SKTYRPCARLSFEHGRCNLV,3.68 ± 0.11
20,SKVFCTIFAWVVVE,7.038 ± 0.033
21,SLACGNEKRFVMILSHI,0.641 ± 0.74
22,SLADDSGNRT,-0.289 ± 0.43
23,SLAHQAFAEPSWTKVEE,0.278 ± 0.26
24,SLAIAVNAMIHNIPADIWMH,6.27 ± 0.083
25,SLARYAGGFRARSGKIFSVC,0.802 ± 0.22

row,Substance,amyloid nucleation score
1,SLCMHTAVFHS,0.092 ± 0.32
2,SLDECHLSRRTNS,0.411 ± 0.34
3,SLENWLCAVPLCGESLEKVW,0.469 ± 0.41
4,SLFFFR,5.03 ± 0.06
5,SLGCSAFR,-1.62 ± 0.62
6,SLGEKRFACLATSCCADDCT,0.508 ± 0.2
7,SLKSAFQMKVISYLVEWLVS,-0.6 ± 0.36
8,SLLESLVAMLVGVQRVVDSR,1.03 ± 0.51
9,SLLIFMSFYYWLQVSYRPPR,-1.3 ± 1.1
10,SLLRLIFMLRRGDIHGYCRG,5.84 ± 0.084
11,SLMDLDFPLTSR,-0.334 ± 0.61
12,SLMLQ,0.706 ± 0.81
13,SLNISCYWHLKFVMRAWHTW,-0.465 ± 1
14,SLNLGRLYDLSMMLAWLGHQ,2.16 ± 0.17
15,SLNPTRSWMRFNINKAHFLL,-0.204 ± 0.48
16,SLQFPISVNTYGDESCNSTV,-0.424 ± 1.1
17,SLRIYGYMDRKSPKESSNFR,0.975 ± 0.37
18,SLRLCLDTMEFRVFKNLGRV,1.45 ± 0.099
19,SLSGRLMNFYIMQNSIPTWW,6.792 ± 0.041
20,SLSHRADACVTS,-0.647 ± 0.64
21,SLSKKMFRCRS,3.4 ± 0.12
22,SLSQMRLSVLSNKDHSIEL,7.964 ± 0.056
23,SLSRNGTVFARFRVSTSRCL,4.23 ± 0.057
24,SLSWQNPCLMFMDNMADMIS,-0.006 ± 0.54
25,SLSYATTFF,0.476 ± 0.24

row,Substance,amyloid nucleation score
1,SLTVFHLKYMSQNIKAE,-0.797 ± 1
2,SLVSKIRLRGAWINSGVKTG,0.923 ± 0.17
3,SLVTLWLGANAR,0.175 ± 0.26
4,SLWRNHMMQ,0.746 ± 0.4
5,SLWTYRARTKGCHYVHSVLM,0.164 ± 1.1
6,SLWYFCRPIGGI,-0.391 ± 0.29
7,SMADFIV,-0.767 ± 0.76
8,SMFNCNWYCGCCMCNLGCLA,7.334 ± 0.035
9,SMGFSSVPHSYTCTVEQG,6.06 ± 0.07
10,SMNVYVDGFCWLAHVLNVVW,6.928 ± 0.035
11,SMPWYMYCIVYYVDVYCCNI,6.566 ± 0.039
12,SMRFVLAF,-1.92 ± 0.77
13,SMSMYTPNFFDFVVVRPTIY,inactive
14,SMTRLLGRDGYTREYSSSSR,0.834 ± 0.55
15,SMVKKLQMESPAFSVGIFWV,7.74 ± 0.085
16,SMVVGMGSCPNVTRGAGLKR,1.06 ± 0.17
17,SMYDAGIFVGYCLRGFLYDC,inactive
18,SMYLTETRLHCHDWSAAAWG,0.663 ± 0.21
19,SNCSLMGYCMYAYNGSDTGC,4.58 ± 0.11
20,SNCSPLATMDCSPDFMSTF,-0.121 ± 1.1
21,SNGINN,inactive
22,SNHLIVMISVFYFKSVRI,inactive
23,SNIGCRKIWTSLRSMDLIIG,-0.006 ± 0.65
24,SNIRISTADDSNSFLPFSSA,-0.315 ± 0.43
25,SNLEHSGWRTRMRWGL,5.5 ± 0.079

row,Substance,amyloid nucleation score
1,SNLSRDESRVGSTGEQGDGG,-0.38 ± 0.55
2,SNMASIFTPKRSFNSEVENQ,-1.31 ± 0.61
3,SNRCLIIFLILC,5.92 ± 0.077
4,SNRRKSAGDSFVRWMCCLT,2.61 ± 0.15
5,SNSCTPAGLETGNLK,inactive
6,SNSHNSRSIAY,0.475 ± 0.57
7,SNSQMKAAMVGCNLRGMEQA,0.689 ± 0.57
8,SNVSKYTKRGDM,-0.184 ± 0.33
9,SPALKPLGRMEYGVSGR,0.072 ± 0.29
10,SPCLDGDRHVGSQMLSPLSW,0.919 ± 0.33
11,SPGIITCGYKLLDG,1.69 ± 0.27
12,SPRRFLMKQGIHQVTLAHCH,-0.342 ± 0.76
13,SPTGPMYRNLLSKKPYVR,-0.909 ± 0.35
14,SPWCPQLSTGGCSNLGSLRR,0.612 ± 0.31
15,SPYHKANGHKNVARLYFRWR,0.731 ± 0.41
16,SQFLIMTEDR,0.123 ± 0.34
17,SQIWFTVTYGQYCYYIVSL,-0.33 ± 0.33
18,SQSKDMMCLSGSYSYYTACA,-1.21 ± 0.78
19,SQVGTW,0.795 ± 0.41
20,SREVRNANPSSGDDGSIRVE,-0.02 ± 1.1
